5 molecules from US20240150423A1, “GLP-1 ANALOGUE-MODIFIED DIMERS WITH DIFFERENT CONFIGURATIONS, PREPARATION METHOD THEREOF, AND APPLICATION THEREOF IN TREATMENT OF TYPE II DIABETES” (Nanjing Finepeptide Biopharmaceutical Co.,Ltd, priority 2019, published 2024) can be followed below.

Starred links: 1 amine or outer side, 2 acyl side, 3 side chain; linkers in the order of their positions; H or OH if unused. Groups on a side chain read outwards from the residue. γGlu = O=C(O)[C@H](CCC(=O)[*:2])N[*:1]; oleoyl = alkanoyl with 18 carbons

This experiment has as its system Normal Kunming (KM) mice. Description: multiple OGTT (mOGTT): hypoglycemic duration after a single administration. Type of experiment: in vivo. The conditions noted are these: single injection at the same dose (1.126 nmol), subcutaneous. An excerpt:
• 1. Methods: Normal Kunming (KM) mice (purchased from Guangdong Animal Center) were used for oral glucose tolerance test (OGTT) to obtain the hypoglycemic activity and durability of drug. […] The blood glucose meter and blood glucose test paper were from Bayer […]. The average blood glucose of each group was used as an evaluation standard: When the average blood glucose of experimental group was higher than that of the NaCl control group for two times, the measurement stopped and the hypoglycemic period compared to the blank control group was the effective duration. • 2. Results • 2.1 single OGTTs: after a single administration, the mice were orally administered glucose once and measured the blood glucose from the tail blood at 0, 10, 20, 40, 60 and 120 min. […] The duration of each monomer group was about 1⁄2-1⁄4 of the duration of its corresponding dimer group. […] Therefore, the 2G3 peptide was selected for treating type II diabetes (T2D) in vivo and subsequent experiments.

B1: 2G2 series 10: disulfide-linked homodimer of monomer SEQ ID NO: 10 (peptide)
chain 1: HAEGTFTSDVCSYLEGQAAXEFIAWLVRGRG
chain 2: HAEGTFTSDVCSYLEGQAAXEFIAWLVRGRG
modifications: not fully specified; disulfide-linked homodimer; Sequence is synthesized; (20)..(20) Xaa is 26Lys[N-e-(N-a-oleoyl-L-g-glutamyl)]; (31)..(31) N-terminal
As for B1, the “Hypoglycemic duration” value is 8 days.

B2: 2G2 series 15: disulfide-linked homodimer of monomer SEQ ID NO: 15 (peptide)
chain 1: HXEGTFTSDVCSYLEGQAAXEFIAWLVRGRG
chain 2: HXEGTFTSDVCSYLEGQAAXEFIAWLVRGRG
modifications: not fully specified; disulfide-linked homodimer; Sequence is synthesized; (2)..(2) Xaa is bAib; (20)..(20) Xaa is 26Lys[N-e-(N-a-oleoyl-L-g-glutamyl)]; (31)..(31) N-terminal
For the molecule B2, the “Hypoglycemic duration” value is 10 days.

B3: 2G2 series 18: disulfide-linked homodimer of monomer SEQ ID NO: 18 (peptide)
chain 1: HXEGTFTSDVCSYLEGQAAXEFIAWLVRGRG
chain 2: HXEGTFTSDVCSYLEGQAAXEFIAWLVRGRG
modifications: not fully specified; disulfide-linked homodimer; Sequence is synthesized; (2)..(2) Xaa is bAla; (20)..(20) Xaa is 26Lys[N-e-(N-a-oleoyl-L-g-glutamyl)]; (31)..(31) N-terminal
Take B3: the “Hypoglycemic duration” value stood at 9 days.

B4: 2G9 series 70: disulfide-linked homodimer of monomer SEQ ID NO: 70 (peptide)
chain: HAEGTFTSDVSCYLEGQAAK([γGlu-oleoyl])EFIAWLVRGRGHGEGTFTSDVSSYLEGQAAREFIAWLVRGRG
modifications: also: disulfide-linked homodimer, feature at 62: C-terminal
For B4, the “Hypoglycemic duration” value is 11 days.

B5: His-Ala-Glu-Gly-Thr-Phe-Thr-Ser-Asp-Val-Ser-Cys-Tyr-Leu-Glu-Gly-Gln-Ala-Ala-Lys[N-ϵ-(N-α-oleoyl-L-γ-glutamyl)]-Glu-Phe-Ile-Ala-Trp-Leu-Val-Arg-Gly-Arg-Gly-His-Gly-Glu-Gly-Thr-Phe-Thr-Ser-Asp-Val-Ser-S … (peptide)
chain: HAEGTFTSDVSCYLEGQAAK([γGlu-oleoyl])EFIAWLVRGRGHGEGTFTSDVSSYLEGQAAREFIAWLVRGRG-OH
As to B5, the “Hypoglycemic (day)” value (monomeric peptides) is on record as 5 (G9 peptide) day.
